In patent publication US11523990B2, “Non-covalent, self-organzing hydrogel matrix for biotechnological applications” (DENOVOMATRIX GMBH, priority 2012, dated 2022):
Entries after “also recorded” stand apart in the source; their conditions may differ.

Assays:
Assay type in all cases: physicochemical
[1] = Hydrogel formation in different solvents; conditions: 5 mM conjugate + 5 mM 14-kDa-heparin
Method: Three respective different cases were tested in the hydrogel-formation stability test. […] The hydrogels were formed by mixing the final concentrations of respectively 5 mM peptide-starPEG-conjugate and 5 mM 14-kDa-heparin in 50 μl physiological phosphate buffer solution (1×PBS), Milli-Q-water or cell culture medium with 2% fetal bovine serum (FBS). The stability of the hydrogels was tested with the same solvent in which it was formed in 200 μl supernatant. The hydrogels were incubated at room temperature (24° C.), the supernatants were changed every day for at least three days in a row and the result after at least 3 days analyzed.

[2] = Stability of formed hydrogels against different solvents; conditions: 24° C., at least three days
Method: In order to test the strength of the interaction between the peptide motif and the 14-kDa-heparin the formed hydrogels were tested with regard to different solvents. […] For this the peptide-starPEG-conjugates were mixed with 14 kDa-heparin in 50 μl in physiological phosphate buffer solution (1×PBS) to a final concentration of respectively 5 mM. Each solvent, i.e., physiological phosphate buffer solution (1×PBS), Milli-0-water, 1 M hydrochloric acid (HCl) 1 M sodium hydroxide solution (NaOH), saturated sodium chloride solution (NaCl), dimethyl sulfoxide (DMSO), ethanol and cell culture medium with 2% fetal bovine serum (FBS) were respectively added as 200 μl supernatant to the hydrogel. The hydrogel was incubated at a room temperature of 24° C. and the supernatants where exchanged every day for at least three days. All experiments were performed three times. Under none of the tested conditions the KA7-hydrogel could be destroyed. […] 2,2,2-trifuourethanlol (TFE) is known to destroy any type of secondary structures.

[3] = Erosion experiment with TAMRA-marked 14-kDa-heparin; conditions: 5 mM conjugate + 5 mM TAMRA-heparin, cell culture medium with 2% FBS, 37° C.
Method: Further, an erosion experiment was conducted. For this purpose peptide-starPEG-conjugates were respectively mixed with TAMRA-marked 14-kDa-heparin. For the erosion experiment the TAMRA-marked 14-kDa-heparin had to be synthesized beforehand. Hereby 14-kDa-heparin was marked with 5-(and-6)-carboxytetramethylrhodamin (TAMRA, Invitrogen) by using the 1-ethyl-3-(3-dimethylaminopropyl)carbodiimide/N-hydroxysulfosuccinimide-(EDAC/sNHS)-chemistry. Heparin, TAMRA, EDAC, sNHS and Na2CO3 were mixed at a ratio of 1:2:5:4:20 in water and incubated overnight. Thereafter the mixture was dialyzed for two days against 10 liters of water in a dialysis membrane with an exclusion limit of 8 kDa with constant exchange of water. The dialyzed product was filtered through a 0.22 μm polyvinylidene fluoride filter (PVDF-filter) and freeze-dried to a red product.
Subsequently the peptide-starPEG-conjugates were respectively mixed with the TAMRA-labelled 14-kDa-heaprin in 50 μl cell culture medium to a final concentration of 5 mM. […] The fluorescence was measured at defined time points in the supernatant by using a plate reading device (BECKMAN COULTER […] Detection platform, BECKAMN COULTER, Brea, Calif., USA) and black 96-well-plates with clear bottom.
Both peptides shoed without heparin a random coiled structure in Milli-Q-water. […] The fluorescence was measured in 200 μl of 1 ml supernatant. […]

[4] = High-throughput centrifuge analysis of mechanical properties of the hydrogels (surface deformation, metal bead penetration); conditions: 5 mM peptide-starPEG + 5 mM 14-kDa-heparin
Method: ATIII is a heparin-binding peptide known from the literature. All peptides are connected to a four-armed, maleimide functionalized 10-kDa-polyethylene glycol (starPEG). The hydrogel formation was tested in a 50 μI mixture, which contains 5 mM 14-kDa-heparin and 5 mM (2.5 mM) peptide-starPEG conjugate in phosphate buffer solution (1×PBS, pH 7.4). The deformation and penetration speed was analyzed through centrifuging the hydrogel in a 45° table centrifuge with 275 μm metal beads added to the surface. The deformation of the surface and the penetration of the metal beads were monitored in dependence on the applied force.
A comparative high-throughput analysis was performed regarding the mechanical properties of the hydrogels. In order to provide a fast high-throughput method for comparing small amounts of hydrogel, a tabletop centrifuge (5424R, Eppendorf, Hamburg, Germany) was used. For this purpose, 50 μl of the hydrogel were formed by mixing the peptide-starPEG-conjugates and 14-kDa-heparin in phosphate buffer (1×PBS, pH 7.4) to a final concentration of 5 mM (once 2.5 mM for KA7-starPEG). The mixture was incubated in 0.2 ml reaction vessels overnight. The deformation of the hydrogel surface was determined in reference to the 45° centrifuge rotor and the penetration of 275 μm metal beads in dependence on the force that has to be produced by the centrifuge. All experiments were repeated three times.
Hereby FIGS. 5A and B show a deformation of the surface of the 50 μl hydrogel in a 0.2 ml reaction tube, more specifically FIG. 5A below the speed required for deforming the surface, and FIG. 5B at the speed required for deforming the surface. FIG. 5C is a schematic representation of the penetration of a small spheres through 50 μl hydrogel in a 0.2 ml reaction tube depending on the force exerted by the 45° centrifuge.
The hydrogels were formed by mixing peptide-starPEG-conjugate and 14-kDa-heparin at 5 mM final concentration in 50 μl phosphate buffer (1×PBS). The analysis was performed by centrifuging the hydrogels in a 45° tabletop centrifuge with 275 μm metal beads on the gel surface. The deformation of the surface and the penetration of the spheres were recorded in dependence on the exerted force.

## CWGGKAKAKAKAKA [KA5]
[1]; Cell culture medium with 2% FBS
  Hydrogel formation in solvent: formed
[1]; PBS, 50 μl, result after at least 3 days
  Hydrogel formation in solvent: formed
[1]; water (Milli-Q)
  Hydrogel formation in solvent: Formed
[2]; supernatant 1M HCl
  Stability of hydrogel against supernatant: only destroyed by 1 M HCl after more than one week incubation; also recorded: Stable; hydrogel was
[2]; supernatant 1M NaOH
  Stability of hydrogel against supernatant: Stable
[2]; supernatant 1xPBS, 5 mM conjugate + 5 mM heparin gel
  Stability of hydrogel against supernatant: Stable
[2]; supernatant Cell culture medium with 2% FBS
  Stability of hydrogel against supernatant: Stable
[2]; supernatant DMSO
  Stability of hydrogel against supernatant: Stable
[2]; supernatant Ethanol
  Stability of hydrogel against supernatant: Stable
[2]; supernatant Saturated NaCl solution
  Stability of hydrogel against supernatant: Stable
[2]; supernatant Water
  Stability of hydrogel against supernatant: Stable
[3]
  Heparin released from the hydrogel (erosion): more erosion
[4]; 50 μl 1×PBS, 45° centrifuge
  Deformation speed: 11223 +/- 4768 m/s^2
[4]; 275 μm metal beads
  Penetration speed: 21209 +/- 2188 m/s^2
